Measurements as given in US7374920B2, “Ginkgo biloba levopimaradiene synthase” (priority 2001, dated 2008).

B1: Ser^61: Ginkgo biloba levopimaradiene synthase truncated at Ala^60-Ser^61; amino acid sequence SEQ.ID.NO:35 (protein, listed as Ginkgo biloba)
chain: MSAAETRPDQLPQEERFVSRLNADYHPAVWKDDFIDSLTSPNSHATSKSSVDETINKRIQTLVKEIQCMFQSMGDGETNPSAYDTAWVARIPSIDGSGAPQFPQTLQWILNNQLPDGSWGEECIFLAYDRVLNTLACLLTLKIWNKGDIQVQKGVEFVRKHMEEMKDEADNHRPSGFEVVFPAMLDEAKSLGLDLPYHLPFISQIHQKRQKKLQKIPLNVLHNHQTALLYSLEGLQDVVDWQEITNLQSRDGSFLSSPASTACVFMHTQNKRCLHFLNFVLSKFGDYVPCHYPLDLFERLWAVDTVERLGIDRYFKKEIKESLDYVYRYWDAERGVGWARCNPIPDVDDTAMGLRILRLHGYNVSSDVLENFRDEKGDFFCFAGQTQIGVTDNLNLYRCSQVCFPGEKIMEEAKTFTTNHLQNALAKNNAFDKWAVKKDLPGEVEYAIKYPWHRSMPRLEARSYIEQFGSNDVWLGKTVYKMLYVSNEKYLELAKLDFNMVQALHQKETQHIVSWWRESGFNDLTFTRQRPVEMYFSVAVSMFEPEFAACRIAYAKTSCLAVILDDLYDTHGSLDDLKLFSEAVRRWDISVLDSVRDNQLKVCFLGLYNTVNGFGKDGLKEQGRDVLGYLRKVWEGLLASYTKEAEWSAAKYVPTFNEYVENAKVSIALATVVLNSIFFTGELLPDYILQQVDLRSKFLHLVSLTGRLINDTKTYQAERNRGELVSSVQCYMRENPECTEEEALSHVYGIIDNALKELNWELANPASNAPLCVRRLLFNTARVMQLFYMYRDGFGISDKEMKDHVSRTLFDPVA
B2: Ala^2 (protein, listed as Ginkgo biloba)
chain: MAGVLFANLPCSLQLSPKVPFRQSTNILIPFHKRSSFGFNAQHCVRSHLRLRWNCVGIHASAAETRPDQLPQEERFVSRLNADYHPAVWKDDFIDSLTSPNSHATSKSSVDETINKRIQTLVKEIQCMFQSMGDGETNPSAYDTAWVARIPSIDGSGAPQFPQTLQWILNNQLPDGSWGEECIFLAYDRVLNTLACLLTLKIWNKGDIQVQKGVEFVRKHMEEMKDEADNHRPSGFEVVFPAMLDEAKSLGLDLPYHLPFISQIHQKRQKKLQKIPLNVLHNHQTALLYSLEGLQDVVDWQEITNLQSRDGSFLSSPASTACVFMHTQNKRCLHFLNFVLSKFGDYVPCHYPLDLFERLWAVDTVERLGIDRYFKKEIKESLDYVYRYWDAERGVGWARCNPIPDVDDTAMGLRILRLHGYNVSSDVLENFRDEKGDFFCFAGQTQIGVTDNLNLYRCSQVCFPGEKIMEEAKTFTTNHLQNALAKNNAFDKWAVKKDLPGEVEYAIKYPWHRSMPRLEARSYIEQFGSNDVWLGKTVYKMLYVSNEKYLELAKLDFNMVQALHQKETQHIVSWWRESGFNDLTFTRQRPVEMYFSVAVSMFEPEFAACRIAYAKTSCLAVILDDLYDTHGSLDDLKLFSEAVRRWDISVLDSVRDNQLKVCFLGLYNTVNGFGKDGLKEQGRDVLGYLRKVWEGLLASYTKEAEWSAAKYVPTFNEYVENAKVSIALATVVLNSIFFTGELLPDYILQQVDLRSKFLHLVSLTGRLINDTKTYQAERNRGELVSSVQCYMRENPECTEEEALSHVYGIIDNALKELNWELANPASNAPLCVRRLLFNTARVMQLFYMYRDGFGISDKEMKDHVSRTLFDPVA

Tested on: EHY18 yeast cells
Test: in vivo expression of GbLS constructs in yeast strain EHY18 that accumulates GGDP, GC quantitation of products
Assay type: cell-based
Conditions: for diterpene products on expression in EHY18: GC, GC/MS
Experimental: The yeast strain of the copending application employed was EHY18 (Hart, E., 2001) which was further transformed with multiple-copy yeast expression vectors comprising an isolated and purified nucleic acid sequence of GbLS or derivatives thereof, which are described herein under control of the GAL1 inducible promoter. Yeast cells were grown to saturation in 5 mL ScD-Leu-Ura at 30° C. Cells were harvested (1300×g, 2 min, 25° C.) and resuspended in 500 μL sterile Milli-Q H2O (2×). The washed cells were resuspended in 5 mL sterile Milli-Q H2O. An aliquot of the culture (5 μL) was added to a 25 mL Corex tube containing pre-prepared 2× resin and 5 mL ScG-Leu-Ura (4% galactose) and shaken at 30° C. for 6 days. Resin was collected by filtration through a Kontes chromatography column (1.7 cm diameter) and rinsed with dI H2O until eluent was clear. The resin was incubated in 2 mL ethanol for several minutes, eluted, and repeated 2×. The combined eluents were dissolved in approximately 3 mL dI H2O and extracted (3×) with 3 mL hexane. The combined extracts were concentrated under a stream of nitrogen. GC analysis (quantitation extrapolated from 0.2 mg/mL longifolene external standard) indicated the following product profile (obtained from triplicate measurement of three cultures): 0.61±0.20 mg/L levopimaradiene, 0.04±0.01 mg/L abietadiene, 0.15±0.05 mg/L abietatriene, 0.16±0.13 mg/L (+)-copalol, and 1.79±0.90 mg/L geranylgeraniol. GC/MS fragmentation confirmed the identity of each compound.
A large scale culture (1-L) was prepared by growing the yeast cells to saturation in 5 mL ScD-Leu-Ura at 30° C. Cells were harvested (1300×g, 2 min, 25° C.) and resuspended in 500 μL sterile Milli-Q H2O (2×). The washed cells were resuspended in 5 mL sterile Milli-Q H2O. An aliquot of the culture (1 mL) was added to a 2 L flask containing 1-L ScG-Leu-Ura (4% galactose) and 88.27 g resin in 120 mL Milli-Q H2O (pre-prepared). The resin was eluted with ethanol (3×100 mL with 20 min incubation periods), which was subsequently extracted (6×) with hexane. The combined extracts were dried over magnesium sulfate, filtered, and concentrated under reduced pressure. GC analysis (quantitation extrapolated from 0.2 mg/mL longifolene external standard) indicated the following product profile (obtained from triplicate measurement): 0.29±0.04 mg/L levopimaradiene, 0.04±0.02 mg/L abietadiene, 0.13±0.04 mg/L abietatriene, 0.11±0.02 mg/L (+)-copalol, and 0.56±0.03 mg/L geranylgeraniol. GC/MS analyses confirmed the production of the above noted diterpenes, which included hydrocarbons and an alcohol.
Further optimization studies employed the Ser61 construct. Factors influencing diterpene production included induction period and concentration of galactose and resin in the inducing medium.

[1] = EHY18, 6 days, 4% galactose, 0.70 g resin/5 mL culture medium, GC quantitation

| Molecule | diterpene production relative to wild-type synthase (EHY18) | net yield of (+)-copalol [1] | net yield of diterpene hydrocarbons [1] | diterpene products on expression in EHY18 |
| --- | --- | --- | --- | --- |
| B1 | approximately four | ~0.2 mg/L | ~0.8 mg/L | produced (+)-copalol, levopimaradiene, abietadiene, and abietatriene |
| B2 |  |  |  | produced (+)-copalol, levopimaradiene, abietadiene, and abietatriene |
